Laboratory results taken from IntAct's records for PubMed 16099979.

B1: Protein FD (Arabidopsis thaliana (Mouse-ear cress)), Q84JK2 (parent)
chain: MLSSAKHQRNHRLSATNKNQTLTKVSSISSSSPSSSSSSSSTSSSSPLPSQDSQAQKRSLVTMEEVWNDINLASIHHLNRHSPHPQHNHEPRFRGQNHHNQNPNSIFQDFLKGSLNQEPAPTSQTTGSAPNGDSTTVTVLYSSPFPPPATVLSLNSGAGFEFLDNQDPLVTSNSNLHTHHHLSNAHAFNTSFEALVPSSSFGKKRGQDSNEGSGNRRHKRMIKNRESAARSRARKQAYTNELELEVAHLQAENARLKRQQDQLKMAAAIQQPKKNTLQRSSTAPF

Variants of: B1
Conditions: with ft_arath FT

| effect of a mutation on the interaction | Variant |
| --- | --- |
| decreasing interaction | MLSSAKHQRNHRLSATNKNQTLTKVSSISSSSPSSSSSSSSTSSSSPLPSQDSQAQKRSLVTMEEVWNDINLASIHHLNRHSPHPQHNHEPRFRGQNHHNQNPNSIFQDFLKGSLNQEPAPTSQTTGSAPNGDSTTVTVLYSSPFPPPATVLSLNSGAGFEFLDNQDPLVTSNSNLHTHHHLSNAHAFNTSFEALVPSSSFGKKRGQDSNEGSGNRRHKRMIKNRESAARSRARKQAYTNELELEVAHLQAENARLKRQQDQLKMAAAIQQPKKNTLQRSSAAPF [T282A] |
| decreasing interaction | MLSSAKHQRNHRLSATNKNQTLTKVSSISSSSPSSSSSSSSTSSSSPLPSQDSQAQKRSLVTMEEVWNDINLASIHHLNRHSPHPQHNHEPRFRGQNHHNQNPNSIFQDFLKGSLNQEPAPTSQTTGSAPNGDSTTVTVLYSSPFPPPATVLSLNSGAGFEFLDNQDPLVTSNSNLHTHHHLSNAHAFNTSFEALVPSSSFGKKRGQDSNEGSGNRRHKRMIKNRESAARSRARKQAYTNELELEVAHLQAENARLKRQQDQLKMAAAIQQPKKNTLQRSSSAPF [T282S] |
